In patent publication US20210163540, “POLYPEPTIDES SELF-ASSEMBLING INTO NANOPARTICLES” (ETH ZÜRICH, published 2021):

Experiments:
[1] = target: T1, OP (Artificial, UniProt Q9XDM8 SEQ:1-184); experiment: EMSA; 1:1 complex in PBS; released over 6 h by 26 uM tRNA at 37 C; conditions: tags: C-terminal His6; chain copies: 24 (self-assembled cage); label: Atto488 5'
T1 chain: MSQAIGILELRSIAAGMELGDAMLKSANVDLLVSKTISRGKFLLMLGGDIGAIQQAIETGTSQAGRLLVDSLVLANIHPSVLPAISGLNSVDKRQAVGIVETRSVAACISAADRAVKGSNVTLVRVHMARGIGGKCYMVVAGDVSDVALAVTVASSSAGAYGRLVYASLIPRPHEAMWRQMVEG

[2] = target: T1, OP; experiment: EMSA; 2:1 ssDNA to capsid; conditions: tags: C-terminal His6; chain copies: 24 (self-assembled cage)
[3] = target: T1, OP; experiment: EMSA; PBS, room temp; near complete binding at 0.5 equiv. cage, 1.97 guests per cage by SEC; conditions: tags: C-terminal His6; chain copies: 24 (self-assembled cage); siRNA duplex with 2-nt 3' DNA overhangs
[4] = target: T2, OP-NoHis6 (Artificial, UniProt Q9XDM8 SEQ:1-188); experiment: EMSA; 1:1 molar ratio; siRNA encapsulation also by SEC; conditions: tags: no His6 (GS C-terminus); chain copies: 24 (self-assembled cage, inferred); siRNA duplex with 2-nt 3' DNA overhangs
T2 chain: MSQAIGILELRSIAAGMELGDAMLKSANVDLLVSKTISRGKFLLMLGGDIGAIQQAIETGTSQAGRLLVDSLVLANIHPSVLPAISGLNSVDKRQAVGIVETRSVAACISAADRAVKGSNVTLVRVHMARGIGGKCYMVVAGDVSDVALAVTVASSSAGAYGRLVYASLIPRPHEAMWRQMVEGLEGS

[5] = target: T3, O3-33 (Artificial, UniProt Q9XDM8 SEQ:1-184, R11T,R39P,R66E,R103W,R130F,R163L); experiment: EMSA; 2 equiv. O3-33; conditions: tags: C-terminal His6; pET29b(+)-O3-33 (David Baker), PDB 3VCD; chain copies: 24 (self-assembled cage); siRNA duplex with 2-nt 3' DNA overhangs
T3 sequence: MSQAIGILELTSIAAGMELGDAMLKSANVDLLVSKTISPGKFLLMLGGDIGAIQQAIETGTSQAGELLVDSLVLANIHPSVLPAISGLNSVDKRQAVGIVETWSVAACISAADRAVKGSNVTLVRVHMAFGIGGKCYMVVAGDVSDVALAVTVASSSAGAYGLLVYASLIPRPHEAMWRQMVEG

| Binder | binding result [2] | also measured |
| --- | --- | --- |
| Atto488-dsDNA (A488-DNA/A488-DNA') (dsDNA) DNA 1: TTAATTAAAGACTTCAAGCGG DNA 2: GCTTGAAGTCTTTAATTAATT |  | binding result [1]: binds |
| GGTTTCAATCGCCTGCTGAATCGC (ssDNA) [ssDNA7] | binds |  |
| GGTGATGCGATGCTGAAAAGCGC (ssDNA) [ssDNA4] | binds |  |
| dsRNA (GFP-siRNA-g/GFP-siRNA-p) (dsRNA, last two 3' nucleotides deoxy on each strand) RNA 1: GAACUUCAGGGUCAGCUUGGG RNA 2: CAAGCUGACCCUGAAGUUCUU |  | binding result [3]: binds; binding result [4]: binds; binding result [5]: no binding |
| GAAGGAGATATACATATGAGCCAGGC (ssDNA) [ssDNA9] | binds |  |
| GTGCTCGAGACCTTCCACCATC (ssDNA) [ssDNA3] | binds |  |
| GCGATTCAGCAGGCGATTGAAACC (ssDNA) [ssDNA5] | binds |  |
